Source: patent US20120114659A1 (published 2012)

Biological target: T1, human NPRA on HEK cells loaded with BNP (human, UniProt P16860 103-134)
T1 sequence: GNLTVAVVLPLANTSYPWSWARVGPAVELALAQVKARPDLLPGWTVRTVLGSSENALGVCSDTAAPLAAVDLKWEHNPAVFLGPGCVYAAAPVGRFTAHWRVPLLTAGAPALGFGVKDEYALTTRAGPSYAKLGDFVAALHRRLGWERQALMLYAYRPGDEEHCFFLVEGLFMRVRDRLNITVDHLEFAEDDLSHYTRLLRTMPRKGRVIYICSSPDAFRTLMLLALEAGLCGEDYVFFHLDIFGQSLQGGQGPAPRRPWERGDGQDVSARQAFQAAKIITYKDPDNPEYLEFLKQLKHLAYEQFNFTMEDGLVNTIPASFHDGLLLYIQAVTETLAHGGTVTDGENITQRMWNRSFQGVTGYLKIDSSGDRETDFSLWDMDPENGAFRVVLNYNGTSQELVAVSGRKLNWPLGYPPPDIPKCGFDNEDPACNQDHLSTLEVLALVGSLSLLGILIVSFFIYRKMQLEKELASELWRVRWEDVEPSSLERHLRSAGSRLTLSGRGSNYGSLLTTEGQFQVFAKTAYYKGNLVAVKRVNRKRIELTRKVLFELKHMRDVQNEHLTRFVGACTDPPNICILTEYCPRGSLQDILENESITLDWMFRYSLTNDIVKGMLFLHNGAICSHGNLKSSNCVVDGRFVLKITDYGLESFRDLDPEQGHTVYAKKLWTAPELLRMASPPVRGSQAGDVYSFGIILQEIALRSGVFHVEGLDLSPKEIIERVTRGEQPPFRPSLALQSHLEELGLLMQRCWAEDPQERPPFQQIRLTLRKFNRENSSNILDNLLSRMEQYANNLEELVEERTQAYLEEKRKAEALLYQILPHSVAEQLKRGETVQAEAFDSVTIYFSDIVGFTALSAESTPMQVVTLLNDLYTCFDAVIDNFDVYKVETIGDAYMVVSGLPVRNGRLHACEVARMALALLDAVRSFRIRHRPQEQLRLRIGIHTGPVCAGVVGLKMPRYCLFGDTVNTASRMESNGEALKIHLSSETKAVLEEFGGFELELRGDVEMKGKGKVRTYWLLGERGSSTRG
T1 sequence (peptide): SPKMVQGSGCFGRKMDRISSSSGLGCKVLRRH
Experiment: cell-based or functional assay

B1: 5064 Fab (Fab, V domains shown)
VH: QVQLQQSGPGLVKPSQTLSLTCAISGDSVSSRSASWSWIRQSPGRGLEWLGRIYYRSKWYNDYAVSVKSRITINPDTSKNQFSLQLNSVTPEDTAVYYCARMDVPSFRYFDVWGQGTLVTVSS
VL: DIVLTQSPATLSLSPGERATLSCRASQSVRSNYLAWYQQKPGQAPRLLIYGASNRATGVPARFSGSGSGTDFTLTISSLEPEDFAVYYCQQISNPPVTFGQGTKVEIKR
For B1, which “fold decrease of the EC50 of BNP (cGMP, HEK NPRA cells, 400 nM Fab)” value is on record?
The value was 2 fold.
